Source: the supplement of paper PMC10724198

Experiments:
Saccharomyces cerevisiae [1] = assay: protein stability index of tFT-peptide fusion in wild type (PSI (0-1 scale)); higher = more stable (slower turnover); conditions: genetic background: wild type
Experimental: (§1)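 MPS profiling in S. cerevisiae of two library types built from selected 12-aa C-degron peptides (IN1, IN2, LN1, LN3, VN2, R1-R5, W1-W3, Atg1 and Rpa12 C-termini): saturation mutagenesis libraries and C-terminal +1 capping libraries (13 aa). Each peptide is fused to the C-terminus of a sfGFP-mCherry timer, after a GGGS linker. Cells are FACS-sorted into 8 mCherry/sfGFP bins and sequenced. PSI runs from 0 (unstable) to 1 (stable), measured once in wild type and in the das1Δ or doa10Δ background.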

Saccharomyces cerevisiae [2] = assay: protein stability index of tFT-peptide fusion in deletion strain of DOA10 (PSI (0-1 scale)); higher = more stable (slower turnover)
Experimental: as §1

Saccharomyces cerevisiae [3] = assay: protein stability index of tFT-peptide fusion in deletion strain of DAS1 (PSI (0-1 scale)); higher = more stable (slower turnover)
Experimental: as §1
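For protein stability index of tFT-peptide fusion in deletion strain of DAS1 in this document: PSI is a weighted mean of each variant's read distribution over the sorted stability bins, computed only for variants having over 10 reads in total.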
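For protein stability index of tFT-peptide fusion in deletion strain of DOA10 in this document: PSI per variant is the weighted mean of its sequencing read distribution over the sorted stability bins, counting only variants with over 10 reads summed across bins.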
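For protein stability index of tFT-peptide fusion in wild type in this document: PSI derived as read-weighted mean over the 8 sorting bins, only variants exceeding 10 total reads kept, mCherry placed adjacent to the peptide and sfGFP distal.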

| Sequence | protein stability index (Saccharomyces cerevisiae [1]) | protein stability index (Saccharomyces cerevisiae [2]) | protein stability index (Saccharomyces cerevisiae [3]) |
| --- | --- | --- | --- |
| RSHRVLLPLYFR | 0.317 | 0.651 |  |
| RYTRLDAIYFRI | 0.421 | 0.673 |  |
| AITLPMCPLALR | 0.577 | 0.643 |  |
| YVTRLDAIYFRI | 0.185 | 0.603 |  |
| GITLPMCPLLLR | 0.099 | 0.668 |  |
| CLVSLPILLFFRI | 0.0568 | 0.469 |  |
| AITLPMCPLLNR | 0.644 | 0.671 |  |
| CLVSRPILLFFR | 0.115 | 0.638 |  |
| GLYRCSVGCWFR | 0.428 | 0.67 |  |
| RSLRVLLNLYFR | 0.397 | 0.659 |  |
| RVTRLDTIYFRI | 0.423 | 0.69 |  |
| RSLRVLHPLYFR | 0.218 | 0.701 |  |
| YLYMCSVGCWFR | 0.317 | 0.586 |  |
| GLYMCSVGTWFR | 0.514 | 0.668 |  |
| RSLRGLLPLYFR | 0.444 | 0.696 |  |
| GLYMCSVGCWFQ | 0.476 | 0.504 |  |
| CLVSLPIWLFFR | 0.0275 | 0.58 |  |
| GLYMCSIGCWFR | 0.231 | 0.602 |  |
| GLYMCSVECWFR | 0.456 | 0.465 |  |
| GVYMCSVGCWFR | 0.276 | 0.622 |  |
| AITLPMCPLLLW | 0.436 | 0.646 |  |
| CLVSLPILLFFS | 0.297 | 0.467 |  |
| NVTRLDAIYFRI | 0.379 | 0.711 |  |

| Sequence | protein stability index (Saccharomyces cerevisiae [1]) | protein stability index (Saccharomyces cerevisiae [2]) | protein stability index (Saccharomyces cerevisiae [3]) |
| --- | --- | --- | --- |
| RSLRVLLPLPFR | 0.64 | 0.676 |  |
| CLVSLPILLFQR | 0.515 | 0.583 |  |
| RVTRLDADYFRI | 0.686 | 0.722 |  |
| RVTRLDAEYFRI | 0.675 | 0.693 |  |
| RVTRDDAIYFRI | 0.652 | 0.684 |  |
| RSLRVCLPLYFR | 0.194 | 0.671 |  |
| RVGRLDAIYFRI | 0.412 | 0.647 |  |
| YITLPMCPLLLR | 0.337 | 0.616 |  |
| AITLPMCPLLLY | 0.404 | 0.517 |  |
| RVTRLDATYFRI | 0.661 | 0.69 |  |
| RSLRVLLPEYFR | 0.653 | 0.677 |  |
| AIWLPMCPLLLR | 0.224 | 0.657 |  |
| RSLRVLLPFYFR | 0.564 | 0.668 |  |
| CLYMCSVGCWFR | 0.276 | 0.584 |  |
| RSLSVLLPLYFR | 0.289 | 0.682 |  |
| RGTRLDAIYFRI | 0.57 | 0.684 |  |
| RSLRVLLPLYRR | 0.624 | 0.673 |  |
| CLVTLPILLFFR | 0.048 | 0.576 |  |
| CLVYLPILLFFR | 0.0623 | 0.404 |  |
| RVTRLDDIYFRI | 0.689 | 0.731 |  |
| RSLNVLLPLYFR | 0.266 | 0.669 |  |
| RTTRLDAIYFRI | 0.498 | 0.658 |  |
| RVTRLDAIYDRI | 0.696 | 0.731 |  |

| Sequence | protein stability index (Saccharomyces cerevisiae [1]) | protein stability index (Saccharomyces cerevisiae [2]) | protein stability index (Saccharomyces cerevisiae [3]) |
| --- | --- | --- | --- |
| RSLRVLLQLYFR | 0.383 | 0.606 |  |
| LKILRQKMNEQN | 0.253 |  | 0.663 |
| VRGAVGGWCLVG | 0.441 |  | 0.674 |
| FSFRWTFRYWVN | 0.089 |  | 0.54 |
| FSMRWTFRYWKN | 0.634 |  | 0.524 |
| LKILRQDMNHQN | 0.647 |  | 0.643 |
| PSLAASFWRVMG | 0.144 |  | 0.664 |
| LVVYLSPVACIN | 0.18 |  | 0.278 |
| CTSCGYKNRTNN | 0.705 |  | 0.696 |
| ARWRVGLWRGFS | 0.599 |  | 0.678 |
| RLIQPLPVQPLN | 0.587 |  | 0.579 |
| LVVYLSCVACIW | 0.0175 |  | 0.0367 |
| PDKRNHLIKWLN | 0.182 |  | 0.694 |
| CTSCGYKFRNNN | 0.681 |  | 0.703 |
| RLWQPLPVQFLN | 0.069 |  | 0.608 |
| PSLAARFWRVVG | 0.14 |  | 0.679 |
| CTSCGTKFRTNN | 0.552 |  | 0.693 |
| VRGGVGGWRLVG | 0.206 |  | 0.683 |
| FYMRWTFRYWVN | 0.044 |  | 0.351 |
| FSLRWTFRYWVN | 0.0436 |  | 0.467 |
| PDKRNPLIKLLN | 0.42 |  | 0.581 |
| VRGAVGSWRLVG | 0.157 |  | 0.68 |
| RLDQPLPVQFLN | 0.0831 |  | 0.808 |

| Sequence | protein stability index (Saccharomyces cerevisiae [1]) | protein stability index (Saccharomyces cerevisiae [2]) | protein stability index (Saccharomyces cerevisiae [3]) |
| --- | --- | --- | --- |
| VRGAHGGWRLVG | 0.146 |  | 0.662 |
| VRGAMGGWRLVG | 0.202 |  | 0.746 |
| PDKRNHLIKLLNT | 0.144 |  | 0.663 |
| VRGAVGGWRLVK | 0.668 |  | 0.689 |
| PSLAAFFWRVVG | 0.13 |  | 0.691 |
| FSMRWTFKYWVN | 0.0423 |  | 0.485 |
| PDKRNHLPKLLN | 0.148 |  | 0.612 |
| LVVYLSCVTCIN | 0.0223 |  | 0.0605 |
| KHHKKGQKQKIN | 0.101 |  | 0.581 |
| RYIQPLPVQFLN | 0.0617 |  | 0.564 |
| GRWRVGLWRGAS | 0.447 |  | 0.691 |
| LKILRQKMNHQNR | 0.677 |  | 0.673 |
| FSMRWTQRYWVN | 0.117 |  | 0.545 |
| ARWRSGLWRGAS | 0.665 |  | 0.676 |
| VRGAVGGWRLVGF | 0.666 |  | 0.693 |
| LSVYLSCVACIN | 0.0226 |  | 0.145 |
| FSMRWTFRYWVI | 0.147 |  | 0.461 |
| LKISRQKMNHQN | 0.323 |  | 0.677 |
| VRGASGGWRLVG | 0.172 |  | 0.674 |
| ARWRVGQWRGAS | 0.614 |  | 0.682 |
